The term pKa denotes the pH at which an ionisable group is half protonated. A lower pKa goes with a group that gives up its proton readily.

The values below come from paper PMC6463701.

Sequence of E6AP C-lobe (residues 741-852) (Q05086 764-875): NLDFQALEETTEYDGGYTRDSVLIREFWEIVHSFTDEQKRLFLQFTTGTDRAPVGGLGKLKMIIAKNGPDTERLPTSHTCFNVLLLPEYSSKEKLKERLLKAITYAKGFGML
Sequence of E6AP N-lobe (isolated) (Q05086 518-875): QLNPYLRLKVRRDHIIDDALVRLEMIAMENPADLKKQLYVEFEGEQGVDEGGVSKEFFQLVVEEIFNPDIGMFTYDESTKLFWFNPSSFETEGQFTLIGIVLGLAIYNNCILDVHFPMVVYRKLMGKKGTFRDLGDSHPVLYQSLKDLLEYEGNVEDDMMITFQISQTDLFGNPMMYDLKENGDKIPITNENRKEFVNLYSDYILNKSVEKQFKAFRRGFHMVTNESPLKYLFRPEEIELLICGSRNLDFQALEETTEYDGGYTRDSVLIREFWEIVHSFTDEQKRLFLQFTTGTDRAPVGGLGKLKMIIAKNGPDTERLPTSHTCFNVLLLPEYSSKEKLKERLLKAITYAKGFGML
Sequence of E6AP HECT domain (residues 495-852), wild type (Q05086 518-875): as above

The first series deals with fluorophore-labeled ubiquitin G76C (BODIPY TMR C5-maleimide). As to the kind of experiment: fluorescence polarisation; 50 nM BODIPY TMR-labelled ubiquitin G76C, E6AP construct titrated (C-lobe 0-500 μM); room temperature; 20 mM HEPES pH 7.2, 200 mM NaCl, 1 mM TCEP, 0.01% Triton X-100; single-site binding model; apparent KD.
Details: not given
In general terms: In fluorescence polarisation assays a small probe gives low polarisation when free and higher when bound to something large.
For “E6AP C-lobe (residues 741-852) (from UniProt Q05086-2 741-852) (domain or fragment)”, the Kd was determined as 400 µM. Turning to “E6AP HECT domain (residues 495-852), wild type (from UniProt Q05086-2 495-852) (domain or fragment)”, the Kd amounted to 83 µM. Regarding “E6AP HECT domain F665D (from UniProt Q05086-2 495-852) (domain or fragment)”, the Kd was 120 µM. On the same count and under the same terms, in the case of “E6AP HECT domain I564D/F583D (from UniProt Q05086-2 495-852) (domain or fragment)” it was 110 µM; in that of “E6AP N-lobe (isolated) (from UniProt Q05086-2 495-852) (domain or fragment)”, 70 µM.

A further series has as its target Cys820 (UniProt position 843, PTSHTCFNVLL). As to the kind of experiment: chemical modification (stopped-flow kinetics, UV-vis). To be noted: 10 °C; 100 mM NaCl; 20 mM sodium acetate, 20 mM sodium phosphate, 20 mM Tris or 20 mM CAPSO (depending on pH); 1 mM EDTA; isolated C-lobe, free (no ubiquitin), reduced thiol, folded.
In turn, “E6AP (UBE3A) HECT domain C-lobe, Delta4 variant (Homo sapiens; del849-852)” returned a pKa of 8.7 ± 0.1. “E6AP (UBE3A) HECT domain C-lobe, wild type (Homo sapiens)” gave a pKa of 8.7 ± 0.1.
